# Data: the domain aggregation screens of Martell et al. (2025)
# Test: soluble fraction after stress (log2 fold change); higher = more stays soluble; pooled small domains, quantitative proteomics
# Conditions: stress: 75 degC
# 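Note: 20 min heating vs room temperature control held 20 min.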
row,Sequence,soluble fraction (log2)
1,HMGQKMLTIELQEKVNKMPDNLASYDLKLSADGMSLIYKYSLKSERTGITALLQELKNAGLVMRDLKTEQ,-0.641
2,HMGQLSDREALTVLAREALVELPRAAGDYRNGRTAALQSLVGRVMRKTAGRGNPALLQEIFRSLL,-0.542
3,HMGQLVVHQIKGEASRLDKFLVVNIPKYSRSVWREMINNGSVQVNGRVVKPHLLVKEGDIITWSS,-1.4
4,HMGQLVYPAGVYDVNKSYITDSNSAPYVLDKTDNNYYVLNTQMTWKGTEQDNKTPSQSYEESGGSVWLLFD,-0.118
5,HMGQPAVSSRDVAEQFGKEHRNVIQSIKNLIAENSALTFMFIEDTYTAGTGKKYPMYYMNRDGFTLLA,0.337
6,HMGQPGNWTSYVFKNSDTEPAKPTSSGPIPSGWNDAPTGVGIWWMSKATIDASTGKAGSWSTPIRVTGED,-0.0861
7,HMGQSKNERMLELVELLNKASRSYYQDAQEIMSNYEYDRLYDELQNLEKELGITLSNSPTVN,-0.122
8,HMGQVSDETGLARVVDALLAAHPDEVAKYRAGKTSLLGWFMGQVMKETRGQANPDLARALVLERLE,-0.342
9,HMGQYSTTLDKIENSLFGFTYSNEAENTRINRIENKVYGKTSTSQTSTRIAKLKKDLSVDEMG,0.111
10,HMGREVVVPNLAGIEKEVALDLLKKNRLGGMITGTRFSSDFPAGQVIQQMPEAGSRVKVGKQVKLVLSEG,0.207
11,HMGRGSEDEQMRGLAVILAEQKQIMQTLGVENEVVKPEQYINTLKRMAELNGFKDTDQFFSIPQ,0.26
12,HMGRHSPLSIEQKEQLKTEIVALQQQRGGGRVTAVNIAELIQQKFNVVYNPNSLYKLLKQIGMSWV,-1.94
13,HMGRKEIIVPNLLGKYAIEAGTILKNAGLLEGQAREENSDTYPAGQIMDQFPKANTPANENDKVDYVVSI,≥ 1.04
14,HMGRLEVDLVVPYDKYEAMNVIRAEGRILKEDHQGDGAHLKIQINETALWKLKRMLGEGYGQ,-0.13
15,HMGRLPMNIVRAIVEHLDRHASYSEINRATGASKGFISKVAAAVEAASLTPEKFLLLNDEDIQNRITPGR,-0.739
16,HMGRPTLEQLLDRAQAMGVPRERYAAYADRRWGRGWRVNPHGRGRAWDELDRYRNDPAGYLDKIEVELNQL,-0.341
17,HMGRQVTVPNVTGMLVEEARAAISEAELWVDSPRAVQGEVTRQEPARGERLSPGQEVRIYTES,0.204
18,HMGRRSKAMLSSALDAVPGLGEMRRKALISQFGSLKKLRGATPEEIAAVPGIGPKLAAAVHEAVSG,-0.0903
19,HMGRSTQVPGVEKMTYSQAVQLLHDHGFRVDIRDSLYRDDIKPGHVIEQFPKAKSIVKPGRKIFLYINAV,-1.43
20,HMGRTGTVVVSPSLNVRTGPWGEIIGSLYNGNKVEIIGSSGDWYQISFGGKTAYVHSDYVVDGG,-1.26
21,HMGSDAFDISKLNLVGKTKESAESLLKENGFSVDTKEEASDTAAKGTVISYSPTKPKNGERVTLTVSSGK,0.385
22,HMGSDQEAAMARQDRLSTLVDYVVERGSVHVDDIVADLGVSPATVRRDLDALAAQQLIIRTRGGATANHT,0.034
23,HMGSGKGAAHTILGISADASDDEIKAAWRKLVQENHPDKLVSQGLPDEFVQAATDRLRLINTAYQSMLNRP,-0.0948
24,HMGSGLAAAEKIRKAHPEIKIVVATSLIDTQVLARAKAVGADSLWYKDGDEGTLMQVVRRTMAGDHIFP,-0.038
25,HMGSIGAMLSSPELYGKLATNPATRGFLSQPDFIAMLTDVQKNPDKFGSYMSDPRMMQVLSVALG,-0.231
26,HMGSIRDIIVQYLSKFDDPQPAAKIVEYVQQYRDTTESSIRSSMGSGDQFVQFSGGLYGLKDKTYAAWYSI,-0.916
27,HMGSLKISNPVKDTLWIQGVDGLKSIEIYSSTGQLVKTILGNQGDVSSLPKGVYFLKINTPSESLTAKIIK,-1.28
28,HMGSLPPPKDGTTIYVVKPGDSLWRISGKFFGNPLFWPRLWEINPNIDNPNKIYPGDVISLKP,0.24
29,HMGSLVKLQSAAELHQAGRSAEAVPILLEVLATNPRLVDGWEILANALEKLGRLDEALAALKKTVALSPPG,-1.55
30,HMGSNENTIREYFDSLIASASKREIMDANPTMSQRTVERILQKLQAEGYVEKIGAARSTRYRRA,-0.0404
